According to the RNAGym collection of RNA variant scans (doi:10.7554/elife.90254):

B1: LINE1-mini (parent)
chain: GGCAGAGCUCAACACAGCGUGGCAAAGUGGCUGUGGCUAGACUGCC

Variants of: B1
Test: self-cleavage, relative activity (ratio to wild type); higher = more cleavage; in vitro, sequencing; the parent is a self-cleaving ribozyme

| Variant | self-cleavage |
| --- | --- |
| GGCAGAGCUCAACUCAGCGUGGCAAGGUGGCUGUGGCUAGACUGCC [A14U A26G] | 0.34 |
| GGCAGAGCUCAACUCAGCGUGGCAACGUGGCUGUGGCUAGACUGCC [A14U A26C] | 0.6 |
| GGCAGAGCUCAACUCAGCGUGGCAAUGUGGCUGUGGCUAGACUGCC [A14U A26U] | 0.53 |
| GGCAGAGCUCAACUCAGCGUGGCAAAGUGGCUUUGGCUAGACUGCC [A14U G33U] | 0.12 |
| GGCAGAGCUCAACUCAGCGUGGCAAAGUGGCUAUGGCUAGACUGCC [A14U G33A] | 0.08 |
| GGCAGAGCUCAACUCAGCGUGGCAAAGUGGCUCUGGCUAGACUGCC [A14U G33C] | 0.05 |
| GGCAGAGCUCAACUCAGCGUGGCAAAGUGGGUGUGGCUAGACUGCC [A14U C31G] | 0.04 |
| GGCAGAGCUCAACUCAGCGUGGCAAAGUGGAUGUGGCUAGACUGCC [A14U C31A] | 0.06 |
| GGCAGAGCUCAACUCAGCGUGGCAAAGUGGUUGUGGCUAGACUGCC [A14U C31U] | 0.04 |
| GGCAGAGCUCAACUCAGCGUGGCAAAGUGGCUGUGCCUAGACUGCC [A14U G36C] | 0.08 |
| GGCAGAGCUCAACUCAGCGUGGCAAAGUGGCUGUGUCUAGACUGCC [A14U G36U] | 0.24 |
| GGCAGAGCUCAACUCAGCGUGGCAAAGUGGCUGUGACUAGACUGCC [A14U G36A] | 0.15 |
| GGCAGAGCUCAACUCAGCGUGGCAAAGUGGCUGUGGCUUGACUGCC [A14U A39U] | 0.57 |
| GGCAGAGCUCAACUCAGCGUGGCAAAGUGGCUGUGGCUCGACUGCC [A14U A39C] | 0.14 |
| GGCAGAGCUCAACUCAGCGUGGCAAAGUGGCUGUGGCUGGACUGCC [A14U A39G] | 0.06 |
| GGCAGAGCUCAACAAAGCGUGGCAAAGUGGCUGUGGCUAGACUGCC [C15A] | 0.1 |
| GGCAGAGCUCAACUCAGCGUGGCAAAGUGGCUGUGGCUAGACAGCC [A14U U43A] | 0.16 |
| GGCAGAGCUCAACUCAGCGUGGCAAAGUGGCUGUGGCUAGACCGCC [A14U U43C] | 0.07 |
| GGCAGAGCUCAACUCAGCGUGGCAAAGUGGCUGUGGCUAGACGGCC [A14U U43G] | 0.35 |

| Variant | self-cleavage |
| --- | --- |
| GGCAGAGCUCAACUCAGCGUGGCAAAGCGGCUGUGGCUAGACUGCC [A14U U28C] | 0.35 |
| GGCAGAGCUCAACUCAGCGUGGCAAAGAGGCUGUGGCUAGACUGCC [A14U U28A] | 0.14 |
| GGCAGAGCUCAACUCAGCGUGGCAAAGGGGCUGUGGCUAGACUGCC [A14U U28G] | 0.3 |
| GGCAGAGCUCAACAAGGCGUGGCAAAGUGGCUGUGGCUAGACUGCC [C15A A16G] | 0.07 |
| GGCAGAGCUCAACAACGCGUGGCAAAGUGGCUGUGGCUAGACUGCC [C15A A16C] | 0.08 |
| GGCAGAGCUCAACAAUGCGUGGCAAAGUGGCUGUGGCUAGACUGCC [C15A A16U] | 0.06 |
| GGCAGAGCUCAACUCAGCGUGGCUAAGUGGCUGUGGCUAGACUGCC [A14U A24U] | 0.42 |
| GGCAGAGCUCAACUCAGUGUGGCAAAGUGGCUGUGGCUAGACUGCC [A14U C18U] | 0.08 |
| GGCAGAGCUCAACUCAGGGUGGCAAAGUGGCUGUGGCUAGACUGCC [A14U C18G] | 0.19 |
| GGCAGAGCUCAACUCAGAGUGGCAAAGUGGCUGUGGCUAGACUGCC [A14U C18A] | 0.11 |
| GGCAGAGCUCAACUCAGCGUGGCAAAGUGGCUGUGGCUAGAUUGCC [A14U C42U] | 0.2 |
| GGCAGAGCUCAACUCAGCGUGGCAAAGUGGCUGUGGCUAGAAUGCC [A14U C42A] | 0.21 |
| GGCAGAGCUCAACUCAGCGUGGCAAAGUGGCUGUGGCUAGAGUGCC [A14U C42G] | 0.1 |
| GGCAGAGCUCAACUCAGCGUGGCAAAGUGGCUGUGGCGAGACUGCC [A14U U38G] | 0.06 |
| GGCAGAGCUCAACUCAGCGUGGCAAAGUGGCUGUGGCCAGACUGCC [A14U U38C] | 0.17 |
| GGCAGAGCUCAACUCAGCGUGGCAAAGUGGCUGUGGCAAGACUGCC [A14U U38A] | 0.34 |
| GGCAGAGCUCAACUCAGCGUGGCAAAGUGGCUGUGGCUAGGCUGCC [A14U A41G] | 0.1 |
| GGCAGAGCUCAACUCAGCGUGGCAAAGUGGCUGUGGCUAGUCUGCC [A14U A41U] | 0.25 |
| GGCAGAGCUCAACUCAGCGUGGCAAAGUGGCUGUGGCUAGCCUGCC [A14U A41C] | 0.06 |

| Variant | self-cleavage |
| --- | --- |
| GGCAGAGCUCAACUUAGCGUGGCAAAGUGGCUGUGGCUAGACUGCC [A14U C15U] | 0.18 |
| GGCAGAGCUCAACUAAGCGUGGCAAAGUGGCUGUGGCUAGACUGCC [A14U C15A] | 0.16 |
| GGCAGAGCUCAACUGAGCGUGGCAAAGUGGCUGUGGCUAGACUGCC [A14U C15G] | 0.04 |
| GGCAGAGCUCAACUCAGCGUGGCAAAGUGGCUGUUGCUAGACUGCC [A14U G35U] | 0.12 |
| GGCAGAGCUCAACUCAGCGUGGCAAAGUGGCUGUAGCUAGACUGCC [A14U G35A] | 0.16 |
| GGCAGAGCUCAACUCAGCGUGGCAAAGUGGCUGUCGCUAGACUGCC [A14U G35C] | 0.11 |
| GGCAGAGCUCAACUCAGCGUGGCAAAGUAGCUGUGGCUAGACUGCC [A14U G29A] | 0.98 |
| GGCAGAGCUCAACUCAGCGUGGCAAAGUCGCUGUGGCUAGACUGCC [A14U G29C] | 0.41 |
| GGCAGAGCUCAACUCAGCGUGGCAAAGUUGCUGUGGCUAGACUGCC [A14U G29U] | 0.5 |
| GGCAGAGCUCAACAAAGCGUGGCAAAGUGGCUGUGGCUAGUCUGCC [C15A A41U] | 0.05 |
| GGCAGAGCUCAACAAAGCGUGGCAAAGUGGCUGUGGCUAGGCUGCC [C15A A41G] | 0.06 |
| GGCAGAGCUCAACAAAGCGUGGCAAAGUGGCUGUGGCUAGCCUGCC [C15A A41C] | 0.15 |
| GGCAGAGCUCAACAAAGCGUGGCAAAGUGGCUGUGGCUCGACUGCC [C15A A39C] | 0.06 |
| GGCAGAGCUCAACAAAGCGUGGCAAAGUGGCUGUGGCUGGACUGCC [C15A A39G] | 0.08 |
| GGCAGAGCUCAACAAAGCGUGGCAAAGUGGCUGUGGCUUGACUGCC [C15A A39U] | 0.06 |
| GGCAGAGCUCAACUCAGCGUGGCAAAGUGGCUGUGGCUAGACUGCA [A14U C46A] | 0.4 |
| GGCAGAGCUCAACUCAGCGUGGCAAAGUGGCUGUGGCUAGACUGCG [A14U C46G] | 0.19 |
| GGCAGAGCUCAACUCAGCGUGGCAAAGUGGCUGUGGCUAGACUGCU [A14U C46U] | 0.28 |
